Test results from patent US20250177530A1 (UNIVERSITY OF PITTSBURGH OF THE COMMONWEALTH SYSTEM OF …, published 2025).
Numbering of substitutions follows the chain as printed. Numbers in names are those of the source.

How the values were obtained:
[1] = target: T1, recombinant human ENPP1 extracellular domain fused with a His6-FLAG tag (human); test: ELISA, ENPP1-His coated at 50 ng/well, anti-FLAG-HRP detection
T1 construct: Expressed in Expi293 cells and purified on nickel resin; It was coated at 50 ng/well in the ELISAs and captured in biotinylated form on streptavidin biosensors in BLItz; also called ENPP1-His; rhENPP1
T1 sequence (P22413 98-925, looked up): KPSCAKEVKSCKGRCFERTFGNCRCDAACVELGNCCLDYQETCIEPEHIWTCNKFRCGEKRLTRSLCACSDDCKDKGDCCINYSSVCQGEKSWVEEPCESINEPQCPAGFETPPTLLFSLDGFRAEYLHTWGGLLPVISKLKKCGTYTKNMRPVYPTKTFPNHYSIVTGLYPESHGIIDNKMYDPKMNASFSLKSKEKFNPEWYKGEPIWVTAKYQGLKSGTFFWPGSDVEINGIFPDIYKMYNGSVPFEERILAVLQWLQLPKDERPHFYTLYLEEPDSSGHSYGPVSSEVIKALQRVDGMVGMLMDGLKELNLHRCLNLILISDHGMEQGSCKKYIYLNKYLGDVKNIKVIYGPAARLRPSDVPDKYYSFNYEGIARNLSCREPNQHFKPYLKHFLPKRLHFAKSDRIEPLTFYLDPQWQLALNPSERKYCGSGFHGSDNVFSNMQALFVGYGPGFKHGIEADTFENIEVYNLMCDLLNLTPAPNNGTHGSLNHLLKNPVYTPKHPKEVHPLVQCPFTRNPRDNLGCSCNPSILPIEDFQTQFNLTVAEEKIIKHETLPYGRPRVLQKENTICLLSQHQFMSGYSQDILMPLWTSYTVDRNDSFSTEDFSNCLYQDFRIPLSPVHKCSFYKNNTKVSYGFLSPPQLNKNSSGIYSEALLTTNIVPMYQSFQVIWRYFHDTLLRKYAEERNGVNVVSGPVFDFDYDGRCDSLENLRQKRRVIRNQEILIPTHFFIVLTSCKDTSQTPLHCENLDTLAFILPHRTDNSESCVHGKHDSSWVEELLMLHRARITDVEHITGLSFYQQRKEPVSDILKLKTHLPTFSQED
Procedure: (§1) The binding and specificity of Fab, scFv, and IgG1 to ENPP1 were analyzed by ELISA. Briefly, ENPP1-His protein was coated at 50 ng/well at 4° C. overnight and blocked with 5% milk for 2 hours at room temperature. After three times washing with PBST, they were incubated with 3-fold serially diluted Fab, scFv, or IgG1 for 1 hour at 37° C. For Fab and scFv detection via the FLAG tag present at the C-terminus, further incubation was performed with anti-FLAG M2-peroxidase (HRP) antibody (A8592, Sigma-Aldrich, St. Louis, MO, USA) for another 1 hour. For the IgG1, HRP-conjugated goat anti-human IgG1 Fc (Sigma-Aldrich, St. Louis, MO, USA) was used for detection.

[2] = target: T1, recombinant human ENPP1 extracellular …; test: BLItz biolayer interferometry, biotinylated ENPP1 on a streptavidin biosensor
Procedure: (§2) The affinity and avidity of the anti-hENPP1 antibody were detected by biolayer interferometry BLItz (ForteBio, Menlo Park, CA, USA). Briefly, DPBS was used to establish a baseline for 30 seconds, and streptavidin biosensor (ForteBio) was coated with 16.7 μg/mL recombinant ENPP1-Biotin for 2 minutes. […] Antigen-coated biosensors with PBS served as a reference control. The dissociation was monitored in DPBS for 4 minutes.

[3] = target: T2, BSA (UniProt P02769 25-607); test: ELISA on BSA
T2 construct: Specificity control antigen in ELISA

[4] = target: T1, recombinant human ENPP1 extracellular …; test: BLItz biolayer interferometry, biotinylated ENPP1 on streptavidin biosensor
Procedure: as §2

[5] = target: T1, recombinant human ENPP1 extracellular …; test: BLItz biolayer interferometry, biotinylated ENPP1 on streptavidin biosensor (avidity, bivalent IgG1)
Procedure: as §2

[6] = target: T1, recombinant human ENPP1 extracellular …; test: ELISA, ENPP1-His coated at 50 ng/well, anti-human IgG1 Fc-HRP detection
Procedure: as §1

T2 sequence (P02769 25-607 limits assumed): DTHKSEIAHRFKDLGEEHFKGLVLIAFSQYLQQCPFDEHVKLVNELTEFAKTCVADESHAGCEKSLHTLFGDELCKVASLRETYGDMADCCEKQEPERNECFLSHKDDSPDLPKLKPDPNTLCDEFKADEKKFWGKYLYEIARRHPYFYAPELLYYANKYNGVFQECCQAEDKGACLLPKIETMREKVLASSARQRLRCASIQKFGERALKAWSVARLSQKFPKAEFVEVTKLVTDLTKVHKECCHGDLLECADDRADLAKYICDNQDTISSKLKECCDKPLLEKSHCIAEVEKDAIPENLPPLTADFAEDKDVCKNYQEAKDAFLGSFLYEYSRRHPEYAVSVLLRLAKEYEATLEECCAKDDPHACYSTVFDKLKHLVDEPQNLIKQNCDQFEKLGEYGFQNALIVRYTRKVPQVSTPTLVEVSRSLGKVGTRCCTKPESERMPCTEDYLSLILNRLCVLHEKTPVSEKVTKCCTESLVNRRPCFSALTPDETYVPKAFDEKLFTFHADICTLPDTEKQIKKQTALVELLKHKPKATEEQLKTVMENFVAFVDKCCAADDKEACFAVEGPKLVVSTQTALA

B1: scFv 17 (scFv)
scFv: DIQMTQSPSSLSASVGDRVTITCRASQSISSYLNWYQQKPGKAPKLLIYAASSLQSGVPSRFSGSGSGTDFTLTISSLQPEDAATYYCQQYDTFPLTFGGGTKVEIKGGGGSGGGGSGGGGSQVQLVESGGGLVKPGGSLRLSCAASGFTFSDYYMSWIRQAPGKGLEWVSYISSSGSTIYYADSVKGRFTISRDNAKNSLYLQMNSLRAEDTAVYYCAREVYYYDSSGYYTYYFDYWGQGTLVTVSS
notes: VL-(G4S)3-VH orientation; Expressed in E. coli; also called scFv format antibody 17; not shown: C-terminal FLAG tag used for detection; The protein was purified on Ni-NTA
- EC50 [1]: 6.4 nM

B2: scFv 3G12 (scFv)
scFv: B1 scFv with A83V, T85V, D92Y, F94S, P95R, L96I, G100Q, V104L
notes: VL-(G4S)3-VH orientation; Expressed in E. coli; also called scFv format antibody 3G12; not shown: C-terminal FLAG tag used for detection; The protein was purified on Ni-NTA
- EC50 [1]: 52.2 nM

B3: Fab 17 (Fab, V domains shown)
VH: QVQLVESGGGLVKPGGSLRLSCAASGFTFSDYYMSWIRQAPGKGLEWVSYISSSGSTIYYADSVKGRFTISRDNAKNSLYLQMNSLRAEDTAVYYCAREVYYYDSSGYYTYYFDYWGQGTLVTVSS
VL: DIQMTQSPSSLSASVGDRVTITCRASQSISSYLNWYQQKPGKAPKLLIYAASSLQSGVPSRFSGSGSGTDFTLTISSLQPEDAATYYCQQYDTFPLTFGGGTKVEIKR
notes: Human Fab from a phage library, expressed in E. coli and purified on Ni-NTA; also called 17-Fab; Clone #1 (Fab)
- koff [2]: 0.00441 s⁻¹
- kon [2]: 71800 M⁻¹ s⁻¹
- binding result [3]: no binding
- EC50 [1]: 13.9 nM
- Kd [4]: 61.4 nM
- koff [4]: 0.0044 s⁻¹
- kon [4]: 72000 M⁻¹ s⁻¹

B4: IgG1 17 (antibody, V domains shown)
VH: B3 VH
VL: B3 VL
notes: also called hIgG1 17; IgG 17
- Kd [5]: 6.7 nM
- koff [5]: 0.0042 s⁻¹
- kon [5]: 630000 M⁻¹ s⁻¹
- EC50 [6]: 0.14 nM

B5: IgG1 3G12 (antibody, V domains shown)
VH: B3 VH
VL: B3 VL with A83V, T85V, D92Y, F94S, P95R, L96I, G100Q, V104L
notes: Bivalent human IgG1 converted from Fab 3G12, expressed in Expi293 cells and purified on Protein A; also called hIgG1 3G12
- kon [2]: 516000 M⁻¹ s⁻¹
- Kd [5]: 4.2 nM
- koff [5]: 0.0021 s⁻¹
- kon [5]: 520000 M⁻¹ s⁻¹
- EC50 [6]: 0.24 nM

B6: Fab 3G12 (Fab, V domains shown)
VH: B3 VH
VL: B3 VL with A83V, T85V, D92Y, F94S, P95R, L96I, G100Q, V104L
notes: Same heavy chain as Fab 17, different light chain; Expressed in E. coli and purified on Ni-NTA; also called 3G12-Fab; Clone #2 (Fab)
- koff [2]: 0.00184 s⁻¹
- kon [2]: 51900 M⁻¹ s⁻¹
- binding result [3]: no binding
- EC50 [1]: 2.6 nM
- Kd [4]: 35.5 nM
- koff [4]: 0.0018 s⁻¹
- kon [4]: 52000 M⁻¹ s⁻¹
